{"source": "paper doi:10.1101/467423", "about": "(bioRxiv, 2018)", "proteins": {"B1": {"name": "Plasmodium falciparum actin I K270M mutant (natural protein)", "chain": "not shown"}}, "molecular_target": "the molecule itself", "assay": "negative-stain electron microscopy"}
{"protein": "B1", "values": [{"measurement": "binding result", "result": "binds"}]}
